From the domain aggregation screens of Martell et al. (2025) come the findings set out here.

This data set can be described thus: soluble fraction after stress (log2 fold change); higher = more stays soluble; pooled small domains, quantitative proteomics. As to conditions: stress: 50 degC. In a few lines: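 The stress applied to every library was 50°C. These custom libraries of small protein domains were pooled and measured at high throughput with quantitative proteomics as the read-out. Aggregation propensity is expressed as the base-two logarithm of the fold change in how much of each protein remains soluble. The higher the value, the more of that protein stays in solution.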

In the case of “HMETYSGVERAAILVMYLERTLAKALLDHMNDEEVRRVGMAMASIDRVEGPDIERIVGDFVRELYEVS”, the “soluble fraction (log2)” value is -0.793.

For “HMLTPSRVLPYLFEDSFFIDTLSLEKDQVVGFLEYIDERLPPQDLMNKSKEFELIDYLINESEAYLSQ”, the “soluble fraction (log2)” value worked out at 0.0334.

On to “HMGAVGISQKVTSLETAVLGKNFAKDPLIDRVARLEQTVLPKQAEANASLSLPERVSKLLEKVPIAAG”, for which the “soluble fraction (log2)” value is 0.223.

As for “HMTNTDALINRAAKVVEEINPDKNTGRVSIDGDLWRAKSSSGELIEQNKQVIVISIESTIVTVKI”, the “soluble fraction (log2)” value was -0.343.

On to “HMENEIFVPKVFMDWYNKVDKSIKVFKAFNLIEKETDPRLKEWVEDNQDEFAKIWLGQLLPVV”, for which the “soluble fraction (log2)” value is -0.0598.

For “HMLDKIRTYIDNSFTGVNETKKVKELKDELFENLKEKYNDQIQDGKTEQEAYNSVISGIGDLSELIESVK”, the “soluble fraction (log2)” value came out at 0.553.

Turning to “HMKEEVEILGGKATIYTNDYGVWQFRLWLTTDNKYVRKSLRTKVKDYAITEGEKLYIQIRSDIEKGIKYY”, the “soluble fraction (log2)” value is -1.13.

For “HMSRYAFEGNVVRLNQKDFDSWKALFTNIDLVSELTRLDIEFTHDKPKNWFSTASAKLNYQNKNAY”, the “soluble fraction (log2)” value is -2.27.

“HMADFYEVLGVERNASSDQIKRAYRKLARELHPDVNLDPVAQNRFKEVTEAYEVLSDPNKRSNFDRG”: the “soluble fraction (log2)” value was 0.209.

Take “HMRKKTYEIITDDLRRMIEAGLIRPGEKLGAIDQLAAKYRVGRSTVREALSHLKALGLVESRQGGGTYVTK”: the “soluble fraction (log2)” value amounted to 0.156.

Consider “HMTHFRTDERRREILSTIEADGRVSVSEIASRFDVSPVTIRSDLNYLAIQGKLKRVRGGAVLLDH”, for which the “soluble fraction (log2)” value was -0.76.

As to “HMSNYPYLLRTYEGKLAVFTDDLVQPDLVFDVYVRTLPELDQQQLSRGIRVKTYDELTSMIEDYI”, the “soluble fraction (log2)” value is -1.13.

“HMPPAPGHDLTEREREVLRLLVEGLSNQEISDRLVISQSTVKNHVSSVLSKLDAANRAEAVALALKNQL”: the “soluble fraction (log2)” value is 0.00346.

With “HMEVPQKTLEILEPWRGRKGFLIPVLQAVQHEFGYVPKEAIETVSREMKMPTAEIYGVVTFYAQFH”, the “soluble fraction (log2)” value was -0.493.

“HMRVDDITDTILNVLKEQGGFISVTDKSSPETINKLFGVSKKTYKKAIGAIYRKKLIIIEDDGIRLNS”: the “soluble fraction (log2)” value was -1.84.

Take “HMISDQENDLNLKHLFDTADQNKDGLILESELKMLMTNLEINKETYDTVMKQITPAGMDYKTFSSL”: the “soluble fraction (log2)” value is 0.0963.

“HMQADEENPKYPVITDGVIQLEVLESIDKTEEWLVERLAKDGYNNVSEIFIAEYENGNLSIVT”: the “soluble fraction (log2)” value came to 0.148.

Turning to “HMQAPAFDYSKVQEGVTVNHKIFGDGTVSWIDKARKYIRVQFSVGEKMFTMETAFVQGFLSL”, the “soluble fraction (log2)” value is -0.348.

For “HMLGDAWSMLILRDAHSGFSRFDQFRKSLGIAPTMLTKRLSVLVDEGLLEKRQYSEHPPREEYVLTQAGQD”, the “soluble fraction (log2)” value is 0.0822.

With “HMRGYGDRIRILRERAGITIEQLAERLGVAPYFIRRTELSEVYPTKPYIEALADVLNIDASYLARHI”, the “soluble fraction (log2)” value is -1.81.

For “HMVYFAKNIRHLRRLRGMSQELLAAELDITRARLGAYEESRSEPPLHLLIKISEFFKLPVDIIVKNDLTKS”, the “soluble fraction (log2)” value is -3.66.

Regarding “HMEPSERYKALQSLLPDYAKRLKKKGVTRHQLFLEYRLTHPDGYARSRFGTYFQAYLALSHP”, the “soluble fraction (log2)” value was -2.27.

As for “HMDDVVVLPFTAEFARMSSDDFVREILVGKIGMKRFVVGYNHRFGSGQQGDFASLQRMQGELGFVAVRVG”, the “soluble fraction (log2)” value is 0.0571.

As for “HMPDLQKAIDDLLQVVDKRLNTSFESILNEVNSEKEAVAFFLALLEAVRWGFVKASQSDEGIKIEK”, the “soluble fraction (log2)” value is -0.00989.

As for “HMGPAYQTQRQEAFAALSEIAAKNPQLMQVAGDLVFRAADFPMADELADRLAKTLPPQLQDKKGQP”, the “soluble fraction (log2)” value was -0.464.

In the case of “HMYSRQRDLILKALRENVVHPTADFIYTVLKEKEPNLSLATVYRNLNLLANEGIIRKIEGLDGVAHFDH”, the “soluble fraction (log2)” value was -1.46.

In the case of “HMRYLHTMIRVSDLEESLNFFKLLDIHEVSRKENEQARFTLVFLSATGDEKLVENAKSPLIELTFN”, the “soluble fraction (log2)” value is -0.0584.

For the sequence “HMDEPGTGFKWREDVLLRVMEANGIDTSHRDDFVRHAVKFDNDDNLYLKKAEIEDAAAAWVSEHS”, the “soluble fraction (log2)” value was 0.0272.

As for “HMRDYDFGNLLYKLRIESGYTQKDIADMLGVTDKAVSKWENGIAKPTTNNIKLLSTIYNVSVEELLNG”, the “soluble fraction (log2)” value was -0.254.

As for “HMDKKTMFNEALAKLVSYATAHDNLITMEDVKSFFNGLIDDDSQYKLIYDYLSINKIEIKGFT”, the “soluble fraction (log2)” value was 0.2.

Consider “HMNLGDLYVIMEIAGQRDDVSARLMNREGQTFLVKTGTKLKSGDVVKEITPTYIKTDHDGEEAFLYF”, for which the “soluble fraction (log2)” value is -0.542.

Consider “HMASDEVPGAGFKWREDVLLRVMEANGIDKSNRDDFVRHAVNFDDDDNNYLKKAEIEAAAAAWVESQSPA”, for which the “soluble fraction (log2)” value was -0.291.

As to “HMAQVDAVQQVLQAFPALRSGQSQHLSQVVAALRQRGILTVGTKTTAWFAQWASVFQLLPLQVPNRIRYQS”, the “soluble fraction (log2)” value is -0.066.

Take “HMVDDTGLPTVLISDGRLLERNLHRLHLDHTWLQRRLEENNIPSIQSLFLLTVDKQHQLYFLKK”: the “soluble fraction (log2)” value was -1.21.

Turning to “HMISAVDLMAARRKIEAGITNLQPGQAFTLPNKVGWVKRMTGGSYFIQGNGGYTASVRTISEAIQAAAMLL”, the “soluble fraction (log2)” value is -0.394.

For the sequence “HMESAEQTGEELAARVNVLQTVSQALARELGREAAVEELADKMKMTVDEVKDIMKMAMDAMSM”, the “soluble fraction (log2)” value is 0.168.

For the sequence “HMGARWPIQDRPLTATEAAAVRRMYAGGLPHGRSKNSVITEVWGDLSNKPKRLDWLNQALEGGA”, the “soluble fraction (log2)” value was 0.184.

Consider “HMDRPARDEAQSWLADVLADGPVPTAEIREEAEAAGLAWRTIQRARIALSVEPIRGDGRNAWLWQLPG”, for which the “soluble fraction (log2)” value was -1.42.

With “HMLTGNTAKLFAHLVEVMNPKEFVKINRQTVIVEAGIPRGSVGAAIAKLLETGHLIANASGAYKLT”, the “soluble fraction (log2)” value was 0.322.

Take “HMEPEYIGELEKRIKKLKTHTYSSIDRLMKSISKKYKITTQVLHDDFKNKHNEIPDEWVKQF”: the “soluble fraction (log2)” value is -0.0578.

In the case of “HMKSYTYNPNYLSDYNAYRLGIPLEALERLQLHRSTGRYVNSLSDFQSVTGISDSLKHSLSSSLRFPN”, the “soluble fraction (log2)” value is -0.876.

For “HMKVSNWYFNGAPSATTPPTSQWTTEKDKKAHIGDTFTSLDKSPSPNAGKSWRYTPSYTWEEIV”, the “soluble fraction (log2)” value turned out to be 0.344.

For the sequence “HMDPFAYEVKVTDLAAGSSEIRTVYTEQGSFNIPSGMSGNLKIQVRSASMYDEVEPSDWYTIGEEDIN”, the “soluble fraction (log2)” value was -0.0779.

Turning to “HMQISYDVPNLIGKSYEEVMTDPSILGEHFTVVLGETKTDEDTDAGVILHQDPAADSKVQDEVTPITVTVS”, the “soluble fraction (log2)” value is 0.42.

Consider “HMDQVLHQLVEVLRRSEIRISPAETLDAFKVLRNVGIDNKSLLREALALTLAKSIHEKIIFYETFDEFFT”, for which the “soluble fraction (log2)” value was -1.16.

For “HMISQLRGKVLGTDRDALVIDVGGVGFRVSATAGARALAGQSGNEARLFTEMVVREDSIDLFGF”, the “soluble fraction (log2)” value amounted to 0.217.

On to “HMKIYDQVVDRIKDRISKGDMPQGSALPPERQLIDELNVSRSSLREGFRILEMMGLIESIPGKGRFVRTSR”, for which the “soluble fraction (log2)” value was -0.235.

For the sequence “HMTVKNFNDLPGFKNENLAELKAMGITTISELAEALNDGGKIKEIIKNLSGVGPKTAEKWKDAIG”, the “soluble fraction (log2)” value is at least 0.62.

Turning to “HMEGDKEIPNVIGKSINDAKKILEQAGLKLGEVKKVNDSSVAKNVVLSTNPNAGTKVSAGDAVSITVAEG”, the “soluble fraction (log2)” value was determined as 0.0251.

For “HMARLAGVDLPREKRIEIGLTYIYGIGLARSQEILKKAGINPDIRVKDLTDEQEQAIRNAMDGYIVEGDL”, the “soluble fraction (log2)” value was -0.148.

“HMGKTKFTEMSALELKAYAELNNNSMHWVYRMLYIGGGDVGFRKGMKELGYSGKFIWMTLERLKKS”: the “soluble fraction (log2)” value is -1.32.

Consider “HMQSITAGDKVRVKNYTVSGGKKRGKVYGGAGTFVVYYEKYDVISVTGDRVVIGIGKAVTAAVHIDDLEK”, for which the “soluble fraction (log2)” value was -1.15.

As to “HMDVRKSISDLKALGLSDAAVTVYGTIGNKPVHIDKIVSELGIPVFKVLTALTQLEMKGLVTAMQGRMYVL”, the “soluble fraction (log2)” value is -1.01.

Take “HMNENNFIVAMRERLAQFIETSGTSQSRIAKELGVSKSTVSLFLGGTYGGNNQELARNLEQLLSMGAARR”: the “soluble fraction (log2)” value was -0.96.

As to “HMSVGDLPPEAREIWKLLDGRELSLDLLAEETGRETGALLSTLMMLEMKLLVEHGSDMVYRRIPRR”, the “soluble fraction (log2)” value was -1.78.

Regarding “HMEREKTYLMPDLIGRKAERVVPRLQASGFKVEDIRHVYYPGLEKGVIVRQSPPGGYPIQKRNLINLEVS”, the “soluble fraction (log2)” value is -0.333.

“HMGTTAWISTKTANGSVNIRTGPGTGYGVIGWALNGDKLEVLSRGTSWHYVKLVKNGKIGYVSASYVSFTQ”: the “soluble fraction (log2)” value is -0.193.

Take “HMRIYTKDEYLAELSRYLHKLPQDDYESAMAYFREYFEEAGPENEAQAMRDLGTPKEAASEILQNLLH”: the “soluble fraction (log2)” value is -0.305.

For “HMNVDSLVGSEARVTAEIDNRKETGTAMVNGQEWTARAESDEEIYPVGTIVEIRKIQGVKLIVSTH”, the “soluble fraction (log2)” value was -0.162.

“HMELDIGKKAIVIEKIDPEAGTGRVRIEGVDWGAKTADSSVIEKGETVVVKAKGAAFVTVAK”: the “soluble fraction (log2)” value amounted to 0.18.

For “HMTGSETLQDIFAHLEAGTVRTALSLIPRLDAVEYEQNRQRIAELAGVRPSALDDLRKQAKREEN”, the “soluble fraction (log2)” value is 0.519.

“HMGVLSPRQSQILALVAQGLGNREIAERLHIAPTTARDHVQAIMRRLNVNSRAAAAVMGVKLGLI”: the “soluble fraction (log2)” value was -0.625.

Turning to “HMPPPTLVESAYNHLKADIISSYLKPDEKINLKDLSQRYQVSETPIKQALNRLISEGLIISVPRKGMWVH”, the “soluble fraction (log2)” value was -0.0852.

Regarding “HMLTTIRKATVNDKTRIMEIYAYARQFMAEHGNPNQWKNNNPSEETIDNDIAKQEMYVIETDGEVHAVFY”, the “soluble fraction (log2)” value was -1.44.

Regarding “HMIAIGDDARLDDAARFFRIAEDSYAAGDYRKSKENYIEARKLYAELGDHEKVNLINSKISAIDSIT”, the “soluble fraction (log2)” value came to 0.0633.

As to “HMSAPGYRAVYPGMLESERQTAYELLSSSGFDVKINTSSGELEVTTDRYHEARMVMASQNIPK”, the “soluble fraction (log2)” value was found to be 0.0432.

On to “HMFPDLTEDEQLIVDVLQRTGDLQINSLIVEANIPVNKMSEILFELEMKGVIRTLAGGVYQLL”, for which the “soluble fraction (log2)” value is -1.46.

Take “HMKFLHLADLHLGKRVNGFSMLEDQAYILRQILTILDDERPDGVLIAGDVYDKPVPPTEAVELLD”: the “soluble fraction (log2)” value was -0.604.

As to “HMSETVYQYVARQLRDMLGSGEIPVGQQLPTYRELAKRFQVSLSVIQRAMRQLKAEAVVSIAHGQGVKAVR”, the “soluble fraction (log2)” value is -0.42.
